Experiment: yeast display, Sf9 membrane polyspecificity reagent, FACS + sequencing; frameworks hold sequencing errors
How it was run: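 Sorting gates, low and high (top ~1%), were placed on anti-HA fluorescence to track expression and on streptavidin fluorescence to track reagent binding. A clone's polyreactivity label is taken from the gate it came out of. The reagent was 10% biotinylated, detergent-solubilized Sf9 membrane, applied for 1 hour at 4 °C to galactose-induced yeast display cells.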

Sequence	polyreactivity (PSR sort gate)
QVQLVESGGGLVQAGGSLRISCAASGSTFWGYDKGWYRQAPGKERELVAAITRNGGGTYYADSVKGRFTISRDNAKNTVYLQMNSLKPEDTAVYYCASTRGAYYLYGGHKMDYWGQGSQVTVSS	high polyreactivity
QDQLVESRGGLVQAGGSLRLSCAASGIIFGYYAMGWYRQAPGKERELVAAISRRGGSTYYADSVKGRFTISRDNAKNTVYLQMNSLKPEDTAVYYCAAVELRLSTPDMESWGQGTQVTVSS	high polyreactivity
QVQLVESGGGLVQAGGSLRLSCAASGFTFIAYAKGWYRQAPGKERELVAAISRRGGSTYYADSVKGRFTISRDNAKNTVYLQMNSLKPEDTAVYYCAKESRKKTDYDYWGQGTQVTVSS	high polyreactivity
QVQLVESGGGLVQAGGRLRLSCAASGIIFGYYALGWYRQAPGKERELVAAISSGGTTSYADSVKGRFTISRDNAKNTDYLQMNSLKPEDTAVYYCAADYDAAWYKDGYYYWGQGTQVTVSS	low polyreactivity
QVQLVESGGGLVQAGGSLRLSCAASGRIFKFNAMGWYRQAPGKERELVAATWSGGRTSYADSVKGRFTISRDNAKNTVYLQMNSLKPEDTAVYYCNAADWIVVQYDYWGQGTQVTVSS	low polyreactivity
QVQLVESGGGLVQAGGSLRLSCAASGSICISYAMGWYRPAPGKERELVAAINYSGGSTYYADSVKGRFTISRDNAKNTVYLQMNSLKPDDTAVYYCAKRSTYRYYGYKLRDYWGQGTQVTVSS	low polyreactivity
QVHLVESGGGLVQAGGSLRLSCAASGSIFVPYAMGWYRQAPRKERELVAAINHGGGRTYADSVKGRFTISRDNAKNSVYLQMNSLKPDDTAVYYCAADGADKIGYYSYYYWGQGTQVTVSS	low polyreactivity
QVQLVESGGGLVQAGGSLRLSCAASGSTFVYNALGWDRQAPGKERELVAAITRRGGTTYYADSVKGRFTMSRDNAKNTVYLQMNSLKQEDTAVYYCAARTRGTAYNYSGQGTQVTVSS	high polyreactivity
QVQLVESGGGLVQAGGSLRLSCAASGITFDGYAMGWYRQAPGKEREFVAAISRSGTSTYYADSVKGRFTISRDNAKNTVYLQMNSLKPEDSAVYYCNKKWPRLYYYWGQGTQVTVSS	high polyreactivity
QVQLVESGGGVVQAGGSLRLSCAASGSIFRRNAMGWYRQAPGKERELVAAISWTTGSTYYADSVKGRFTISRDNAKNTVYLLMNSLKAEDTSVYYCAAVIRSRYSYYEYDFWGQGTKVTVSS	high polyreactivity
QVQLVESGGGLVQAGGSLRLSCAASGFTFEVYAMGRYRQAPGKERELVAAITSSGGRTYYADSVKGRFTISRDYAKNTVYLQMNSLKPEDTAGYYCAAYVSYEYGYWGQGSQVTVSS	high polyreactivity
QVQLVESGGGLVQAGGSLRLSCAASGSTFGGYAMGWYIQAPGKERELVADISRRVGSTYYADSVKGRFTISRDNAKNTVYLQMNSLKPEDTAVYYCNVPRIVIISGPSSPFRYYWGQGTQVTVSS	high polyreactivity
QVQLVESGGGLVQAGGSLRLSCAASGRTFLRYAMGWYRQAPGKERELVAAISSRGGSTYYADSVKGRFTISRDNAKNTVYLQMNSLKPEDTAVYYCAARFLHYYPTRGYTYDYWGQGTQVTVSS	high polyreactivity
QVQLVESGGGLVQAGGSLRFSCAASGRTFRYYAMRWYRQAPGKERELVADISSTGRTYYADSVKGRFTISRDNAKNTVYLQMNSLNPEDSAVYYCAADYYSTYRTIYYYWGQGTQVSVSS	low polyreactivity
QVQLVESGGGLVQAGGSLRLSCAASGRIFRYYAMGWYRQAPGKERELVAAITGRGTSTYYADSVKGRFTISRDNAKNTVYVQMNSLKPEDTAVYYCAAGSVLRYWAGDYWGQGTQVTVSS	low polyreactivity
QVQLVESGGGLVQAGGSLRLSCAASVFIYVKYAMGWYRQAPGKERELVAAITWSTGSTYYADSVKGRFTISRDNAKNTVYLQMNSMKPEDTAVYYCNVDSAWGRRYYSSYPFYYWGQGTQVTVSS	low polyreactivity
QVQLVESGGGLVQAGGSLRLSCAASGFIFNAYTMGWYRKAPGKERELFAAISRRGSSTYYADSVKGRFTISRDNAMNTVYLQMNSLKPEDTAVYYCNTRLYARDDSDFDYWGQGPQVTVSS	high polyreactivity
QVQLVESGGGLVQAGGSLRLSCAASGRIYGYAMGWYRQAPGKESELVAVITTSGGRTYYADSVKGRFTISRDNAKNTVYLQMNSLKPEDNAVYYCNVGKPSRRSYGTLIPAALYDSWGQGTQVTVSS	high polyreactivity
QVQLVESGGGLVQAGGSLRLSWAASGFTFTSYTMGWYTPAPGKERELVAAISNTGGSTYYADSVKGRFTISRDNAKNTVYLQMNSLKPEDTAVYYCAARTHTYGKFWRYYWGQGTQVTVSS	low polyreactivity
QVQLVESGGGLVQAGGSLRLSCAASGNTFSTYGMGWYRQAPGKERELVAGITSDGRTNYADSVKGRFTISRDNAKNTVYLQMNSMKPEVTAVYYCAAEWASRFAVFWAYPKYDYWGQGTQVTVSS	low polyreactivity
QVQLVESGGGLLQAGGSLRISCAASGSTFYYYAMGWYRQAPGKERELVAAISRGGGSTYYADSVKGRFTISRDNAKNTVYLQMNSLKPEDTAVYYCAARRVGGGFYTWRNPAYEYWGQGTQVTVSS	high polyreactivity
QVQLVESGGGLVQAGGSLRLSCAASGRTFWNYAMGWSRQAPGKERELVAVIRFSDGSTYYADSVKGRFTISRDNAKNTVYLQMNSLKPEDTAVYYCAAKGPRRWGSGFDYWGQGTQVTVSS	low polyreactivity

Sequence	polyreactivity (PSR sort gate)
QVQLVESGGGLVQAGGSLRLSCAASGFTFPGYTMGRYRQAPGKERELVAAITWSGGRTYYADSVKGRFTITRDNAKNTVYLQMNSLKPEDTEVYYCAANFGAFYGNRDYWGQGTQVTVSS	high polyreactivity
QVQLVESGGGLVQAGGSLRLICAASGRIFRANARGWYRQAPGKERELVATIRNSGGITYYADSVKGRFTISRDHAKNTVYLQMNSLKPEDTALYYCGNLGRYCYDYWGQGTQVTVSS	high polyreactivity
QVQLVESGGGLVQAGGSLRLSCAASGLIFVGYAMGWSRQAPGKERELVAAITSGGYTKYADSVKGRFTISRDNAKYSVYLQMNSLKPEDTAVYFCAASGWRKWWSARNYYWGQGTQVTVSS	low polyreactivity
QVQQQESGGGLVQAGGSLRLSCAASGTIFQLTVMGRYRQASGKERELVASIDYGGNTNYADSVKGRFTISRDNAKNTVYLQMNSLKPEDTAVYYCEASSDSWTTHPYWGQGTQVTVSS	low polyreactivity
QVQLVESGGGLVQAGGSLRLSCAASRIIFYAYAMRWYRQAPGNERELVAAMSWSGGSTYYADSVKGRYTISRDNAKNTFYLQMNSLKPEDTAVYYCAAYFNIYGLEYDYWGQGTQVTVSS	high polyreactivity
QDQLVESVGGLVQAGGSLRLSCAASASTFGSNAMGWYRQAPGKDREFVAAISRRGGSTYYADSVKGRFTFSRDNAKNTVYLQMNSLKPEDTAVYYCAADYISLREEHYWGHGTQVTVSS	high polyreactivity
QVQLVESGGGLVQAGGSLRLSCAASGFIFDLYAMGWSRQAPGKERELVAVISFDGGSTYYADSVKGRFTISRDNAKNTVYLQMNSLKPEDTAVYYCNTYAGLVSPSDLYDYWGQGTQVTVSS	low polyreactivity
QVQLVESVGGLVQAGGSLRLSCAASVYTFPRYTMGWYRQAPGKERELVAAINWSGGSTYYADSVKRRFTISRDNAKNTVYLQMNSLKPEDTAVYYCNKAYVSRYDYWGQGTQVTVSS	high polyreactivity
QVQLVQSGGGLVQAGGSLRLSCAASGSIFDYNTMGWYRQAPGKERELVATISWSGDSTYYADSVKGRFTISRDNAKNTVYLQMNSLKPEDTAVYYCNADDPPGAPYYDSFDYRGDYWGQGTQVTVSS	low polyreactivity
QFQLVESGGGFVQAGGSLRLSCAASGRTFYPYAMGLYRQAPGKERELVAAISSSGGSTYYADSVKGRFTISRDNAKNTVYLQMNSLKPDDTAVYYCAAVASKYKYTGGMDYWGQGTQVTVSS	high polyreactivity
QVQLVESGGGLVQAGGSLRLSCAASGFTFTRYAMGWYRQAPGKERELVAAITTNSGSRTYYADSVKGRFTISRDNAKNTVYLQMNSLKPEDTAVYYCAADGPVVRGYYWGQGTQVTVSS	high polyreactivity
QVQLVESGGGLVQAGGSLRLSCAASGSIFKHNDMGWYRQAPGKERELVAAISRSGGATYYAHSVKGRFTISRDNAKNTVYLQMNSLKPEDTAVYYCNAGRRTARYGYWGQGTQVTVSS	high polyreactivity
QVQLVESGGGLVQAGVSLRLSCAASGSTFIRNAMGWYRKAPGKERELVAAISSGGASTHYADSVKGRFTISRDNAKNTVYLQMKSLKPEDTAVYYCSATHRWYYWPGIPAYDYWGQGTQVTVSS	low polyreactivity
QVQLVESGGGLVQAGGILRLSCAASGRTFGRNAMGWYRQAPGKERELVARITSGGSTSYADSVKGRFTISRDNAKNTVYLQMNSLKPEDTAVYYCAKGSYGVAYFTHTARYYGGYEYWGQGTQVTVSS	high polyreactivity
QVQLVESGGGLVQAGGSLRLSCAASGSTFVPYPMGWYRQAPGKERELVAAISSTGGSTYYADSVKGRFTISRDNAKNTVYLQMNSLKPEDNAVYYCNALAKIRYGQINKGYYRGQGTQVTVSS	high polyreactivity
QVQLQESGGGLVQAGGCLSCTASGTIFGQGDMGWYRQAPGKERELVATINDGASTYYADSVKGRFTISRDKAKNTVNLQKNSLKPDDTAVYYCAVFTDITTYFGYWGQGTQVTVSS	low polyreactivity
QVQLVESGGGLVQAGGSLRLSCAASGRTFKYYAMGWYRQAPGKERELVATITWSGTSTNYADSVKGRFTISRDTANNSVYLQMNSLKPEDTAVYYCAARSKRRNYDYWGQGTQVTVSS	high polyreactivity
QVQLEESGGGLVQAGGSLRLSCAASGIIFGRYTMGWYREAPGKERELVAAITSSGITYYADSVKGRFTISRDNAKNTVYLQMNSLKPEDTAVYYCAADSPVSVTADDGYWGQGTQVTVSS	low polyreactivity
QVQLVESGAGLVQAGGSLRLSCASSGTIFWGYAMGWYRQAPGKERELVAAITDSGGRTYYADSVKGRFTISRDNAKNTVYLQMNCLKPEDTAVYYCAADYYSQYYYYAVPDRDYWGQGTQVTVSS	low polyreactivity
QVQLVESGGGLVQAGGSLRLSCAASGFTFDIYAMGWYRQAPGKERELVATISRSGGTTYYADSVKGRFTISRDNAKNTVYLQMNSLKPEDTAVYYCNAGRYYIGGYWGQGTQVTVSS	high polyreactivity
QVQLVESGGGLVQAGGSLRLSCAASGTISASYAMGWYRQATGKERELVAAISSGGDTNYADSVKGRFTISRDNAKNTVYLQMNSLKPEDTAVYYCAADTDSDQGSEYDYWGQGTQVTVSS	low polyreactivity
